B1: Bone morphogenetic protein receptor type-1B (Homo sapiens), O00238 (parent)
chain: MLLRSAGKLNVGTKKEDGESTAPTPRPKVLRCKCHHHCPEDSVNNICSTDGYCFTMIEEDDSGLPVVTSGCLGLEGSDFQCRDTPIPHQRRSIECCTERNECNKDLHPTLPPLKNRDFVDGPIHHRALLISVTVCSLLLVLIILFCYFRYKRQETRPRYSIGLEQDETYIPPGESLRDLIEQSQSSGSGSGLPLLVQRTIAKQIQMVKQIGKGRYGEVWMGKWRGEKVAVKVFFTTEEASWFRETEIYQTVLMRHENILGFIAADIKGTGSWTQLYLITDYHENGSLYDYLKSTTLDAKSMLKLAYSSVSGLCHLHTEIFSTQGKPAIAHRDLKSKNILVKKNGTCCIADLGLAVKFISDTNEVDIPPNTRVGTKRYMPPEVLDESLNRNHFQSYIMADMYSFGLILWEVARRCVSGGIVEEYQLPYHDLVPSDPSYEDMREIVCIKKLRPSFPNRWSSDECLRQMGKLMTECWAHNPASRLTALRVKKTLAKMSESQDIKL
partner: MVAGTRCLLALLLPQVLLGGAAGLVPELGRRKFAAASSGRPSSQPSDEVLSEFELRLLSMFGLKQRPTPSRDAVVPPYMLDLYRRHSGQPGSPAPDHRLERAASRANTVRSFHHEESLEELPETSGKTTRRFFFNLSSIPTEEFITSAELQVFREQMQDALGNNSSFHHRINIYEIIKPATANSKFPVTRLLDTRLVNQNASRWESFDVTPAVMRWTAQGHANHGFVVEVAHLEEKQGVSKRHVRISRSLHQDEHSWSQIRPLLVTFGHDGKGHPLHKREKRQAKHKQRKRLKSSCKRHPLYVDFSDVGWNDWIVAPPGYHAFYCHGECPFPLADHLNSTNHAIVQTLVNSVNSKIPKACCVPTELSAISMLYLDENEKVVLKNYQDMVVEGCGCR

In one experiment the parent is B1. Conditions: with bmp2_human BMP2, P12643.
For H35S, the “effect of a mutation on the interaction” value was “decreasing interaction”.

As to H36G, the “effect of a mutation on the interaction” value is recorded as “decreasing interaction”.

In a further experiment the parent is B1. Conditions: with bmp2_human BMP2, P12643. This is another data set of the same source.
On to Q80A, for which the “effect of a mutation on the interaction” value is “decreasing interaction”.

The values are drawn from IntAct's records for PubMed 19229295.
